The values that follow come from patent US20040086528A1 (PROGENICS PHARMACEUTICALS, published 2004).

Holding throughout (assay): cell-based or functional assay
Assay [1] deals with wild-type CCR5, HA-tagged at the C-terminus (human, UniProt P51681 1-352).
The target in a further assay is T1, CCR5 Y184A, HA-tagged (human, UniProt P51681 1-352).
T1 sequence: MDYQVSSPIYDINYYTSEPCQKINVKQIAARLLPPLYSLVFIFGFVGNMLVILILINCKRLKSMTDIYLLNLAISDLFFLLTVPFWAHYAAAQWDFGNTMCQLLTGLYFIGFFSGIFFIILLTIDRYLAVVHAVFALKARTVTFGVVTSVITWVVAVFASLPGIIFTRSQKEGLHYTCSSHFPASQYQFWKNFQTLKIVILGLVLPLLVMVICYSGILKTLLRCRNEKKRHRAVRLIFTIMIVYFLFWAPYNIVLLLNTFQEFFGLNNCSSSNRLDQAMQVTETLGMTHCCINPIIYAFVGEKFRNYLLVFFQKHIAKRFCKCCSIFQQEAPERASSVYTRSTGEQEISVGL

The target in a further assay is T2, CCR5 E18A, HA-tagged (human, UniProt P51681 1-352).
T2 sequence (looked up): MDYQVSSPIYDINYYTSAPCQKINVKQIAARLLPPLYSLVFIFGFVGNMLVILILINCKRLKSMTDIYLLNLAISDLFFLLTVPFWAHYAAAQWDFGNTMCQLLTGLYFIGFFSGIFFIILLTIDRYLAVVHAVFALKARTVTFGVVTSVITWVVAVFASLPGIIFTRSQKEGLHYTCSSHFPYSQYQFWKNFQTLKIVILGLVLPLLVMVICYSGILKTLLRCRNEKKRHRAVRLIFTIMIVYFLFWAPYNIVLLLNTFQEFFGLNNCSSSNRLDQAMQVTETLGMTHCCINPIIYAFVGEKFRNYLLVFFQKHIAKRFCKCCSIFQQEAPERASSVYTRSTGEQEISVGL

The next assay deals with T3, CCR5 N13A, HA-tagged (human, UniProt P51681 1-352).
T3 sequence: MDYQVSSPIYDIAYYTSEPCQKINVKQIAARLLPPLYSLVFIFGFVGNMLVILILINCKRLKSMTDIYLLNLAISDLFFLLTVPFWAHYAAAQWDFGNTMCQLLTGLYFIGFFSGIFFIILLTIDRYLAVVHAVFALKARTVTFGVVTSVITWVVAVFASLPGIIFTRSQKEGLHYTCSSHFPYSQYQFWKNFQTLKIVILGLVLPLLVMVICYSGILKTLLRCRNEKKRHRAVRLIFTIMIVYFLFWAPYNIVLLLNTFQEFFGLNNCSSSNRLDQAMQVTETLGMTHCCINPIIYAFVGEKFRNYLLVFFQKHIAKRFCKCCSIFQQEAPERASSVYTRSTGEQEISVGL

The target of assay [2] is T4, CCR5 R274A/D276A, HA-tagged (human, UniProt P51681 1-352).
T4 sequence: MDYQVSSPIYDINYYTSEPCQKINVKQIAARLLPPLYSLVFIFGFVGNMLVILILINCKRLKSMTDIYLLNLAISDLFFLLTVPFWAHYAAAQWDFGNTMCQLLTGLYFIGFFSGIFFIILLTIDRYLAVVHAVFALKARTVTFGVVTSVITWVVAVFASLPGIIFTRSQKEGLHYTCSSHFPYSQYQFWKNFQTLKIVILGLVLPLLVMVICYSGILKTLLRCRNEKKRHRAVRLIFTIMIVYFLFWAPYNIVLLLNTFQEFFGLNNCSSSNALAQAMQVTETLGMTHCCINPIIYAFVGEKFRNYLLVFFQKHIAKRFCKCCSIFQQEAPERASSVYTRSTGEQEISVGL

B1: RANTES, recombinant human (ligand)
chain: SPYSSDTTPCCFAYIARPLPRAHIKEYFYTSGKCSNPAVVFVTRKNRQVCANPEKKWVREYINSLEMS
Regarding B1, the “relative % inhibition of NLluc/JR-FL entry into U87MG-CD4 cells by 2 µg/ml chemokine (wild-type = 100)” value is 100% in assay [1]; 36% with CCR5 Y184A, HA-tagged; 62% with CCR5 E18A, HA-tagged; 92% with CCR5 N13A, HA-tagged; 33% in assay [2].

B2: macrophage inflammatory protein (MIP)-1β, recombinant human (ligand, UniProt P13236 24-92, looked up)
chain: APMGSDPPTACCFSYTARKLPRNFVVDYYETSSLCSQPAVVFQTKRSKQVCADPSESWVQEYVYDLELN
Take B2: the “relative % inhibition of NLluc/JR-FL entry into U87MG-CD4 cells by 2 µg/ml chemokine (wild-type = 100)” value in assay [1] stood at 100%; in the assay with CCR5 Y184A, HA-tagged, 68%; with CCR5 E18A, HA-tagged, 100%; with CCR5 N13A, HA-tagged, 93%; in assay [2], 36%.
